Consider one protein from publication PMC3558595 (Integrative biology : quantitative biosciences from nano to …, 2013).

This series deals with the molecule itself. The series is described as follows: FRET or BRET.

B1: Wzm, transmembrane protein of the A-band polysaccharide ABC transporter of Pseudomonas aeruginosa, fused to GFP2 or YFP (natural protein, Pseudomonas aeruginosa PAO1, UniProt Q9HTB8 1-265, looked up)
chain: MLLGLSRSLWGYRGFVLGSVKREFQSRYRGSLFGALWTVLNPLSMIVVYTVIFSQVMRARLPGVDDGLAYSVYLCAGLLTWGLFAEITSRSQSMFIENANLLKKISFPRICLPVIVLLNAGVNFAIILALFLGFLALSGRLPGAALLALVPLLAIQVLFAAGLGMILGVLNVFFRDVGQLFGICLQFWFWLTPIVYPIGILPEGIRSLIELNPMTALMRSYQQLFLHGQWPDWPSLLPITLLALLLCALGLRLFRQRVGEMVDEL
B1: the “stoichiometry N” value stood at 4.
